To fix the notation:
B1: Cdc7 (subunit of the full-length DDK) (enzyme, budding yeast, UniProt P06243 1-507, looked up)
chain: MTSKTKNIDDIPPEIKEEMIQLYHDLPGIENEYKLIDKIGEGTFSSVYKAKDITGKITKKFASHFWNYGSNYVALKKIYVTSSPQRIYNELNLLYIMTGSSRVAPLCDAKRVRDQVIAVLPYYPHEEFRTFYRDLPIKGIKKYIWELLRALKFVHSKGIIHRDIKPTNFLFNLELGRGVLVDFGLAEAQMDYKSMISSQNDYDNYANTNHDGGYSMRNHEQFCPCIMRNQYSPNSHNQTPPMVTIQNGKVVHLNNVNGVDLTKGYPKNETRRIKRANRAGTRGFRAPEVLMKCGAQSTKIDIWSVGVILLSLLGRRFPMFQSLDDADSLLELCTIFGWKELRKCAALHGLGFEASGLIWDKPNGYSNGLKEFVYDLLNKECTIGTFPEYSVAFETFGFLQQELHDRMSIEPQLPDPKTNMDAVDAYELKKYQEEIWSDHYWCFQVLEQCFEMDPQKRSSAEDLLKTPFFNELNENTYLLDGESTDEDDVVSSSEADLLDKDVLLISE
notes: Cdc7, budding yeast; Stood in the assay as part of the DDK heterodimer; also called kinase core
B2: Dbf4 (subunit of the full-length DDK) (natural protein, budding yeast, UniProt P32325 1-704, looked up)
chain: MVSPTKMIIRSPLKETDTNLKHNNGIAASTTAAGHLNVFSNDNNCNNNNTTESFPKKRSLERLELQQQQHLHEKKRARIERARSIEGAVQVSKGTGLKNVEPRVTPKELLEWQTNWKKIMKRDSRIYFDITDDVEMNTYNKSKMDKRRDLLKRGFLTLGAQITQFFDTTVTIVITRRSVENIYLLKDTDILSRAKKNYMKVWSYEKAARFLKNLDVDLDHLSKTKSASLAAPTLSNLLHNEKLYGPTDRDPRTKRDDIHYFKYPHVYLYDLWQTWAPIITLEWKPQELTNLDELPYPILKIGSFGRCPFIGDRNYDESSYKRVVKRYSRDKANKKYALQLRALFQYHADTLLNTSSVNDQTKNLIFIPHTCNDSTKSFKKWMQEKAKNFEKTELKKTDDSAVQDVRNEHADQTDEKNSILLNETETKEPPLKEEKENKQSIAEESNKYPQRKELAATPKLNHPVLATFARQETEEVPDDLCTLKTKSRQAFEIKASGAHQSNDVATSFGNGLGPTRASVMSKNMKSLSRLMVDRKLGVKQTNGNNKNYTATIATTAETSKENRHRLDFNALKKDEAPSKETGKDSAVHLETNRKPQNFPKVATKSVSADSKVHNDIKITTTESPTASKKSTSTNVTLHFNAQTAQTAQPVKKETVKNSGYCENCRVKYESLEQHIVSEKHLSFAENDLNFEAIDSLIENLRFQI
notes: Dbf4, budding yeast, 704 residues; Stood in the assay as part of the DDK heterodimer
B3: Dbf4-dependent kinase Cdc7 (DDK), full-length Cdc7-Dbf4 heterodimer (complex, budding yeast)
chain 1: B2 chain
chain 2: B1 chain
notes: Dbf4, budding yeast, 704 residues; Cdc7, budding yeast; Treated with lambda phosphatase during purification; also called Dbf4-Cdc7 kinase complex; WT DDK

Several values for one entry are separate records, joined by “and”; a condition that tells them apart may be missing. Equal entries are not always repeated.

What all share (experiment): cryo-EM structure; DDK-DH mixture (ATP-γ-S) mildly crosslinked by Grafix: 20-40% glycerol gradient with 0-0.025% glutaraldehyde, 150 mM KOAc, pH 7.6, 4 °C; States I-IV and Groups I-VI by focused 3D classification
Holding throughout (conditions): both partners purified

Test [1] addresses B2.
For test [2], the target named is T1, Mcm2 (subunit of the MCM double hexamer) (budding yeast (endogenous in W303), UniProt P29469 1-868).
T1 construct: Mcm2, budding yeast, endogenous protein from its genomic locus; Stood in the assay as a subunit of the DH; source: endogenous, G1 chromatin of budding yeast (W303), purified as part of the DH
T1 sequence (looked up): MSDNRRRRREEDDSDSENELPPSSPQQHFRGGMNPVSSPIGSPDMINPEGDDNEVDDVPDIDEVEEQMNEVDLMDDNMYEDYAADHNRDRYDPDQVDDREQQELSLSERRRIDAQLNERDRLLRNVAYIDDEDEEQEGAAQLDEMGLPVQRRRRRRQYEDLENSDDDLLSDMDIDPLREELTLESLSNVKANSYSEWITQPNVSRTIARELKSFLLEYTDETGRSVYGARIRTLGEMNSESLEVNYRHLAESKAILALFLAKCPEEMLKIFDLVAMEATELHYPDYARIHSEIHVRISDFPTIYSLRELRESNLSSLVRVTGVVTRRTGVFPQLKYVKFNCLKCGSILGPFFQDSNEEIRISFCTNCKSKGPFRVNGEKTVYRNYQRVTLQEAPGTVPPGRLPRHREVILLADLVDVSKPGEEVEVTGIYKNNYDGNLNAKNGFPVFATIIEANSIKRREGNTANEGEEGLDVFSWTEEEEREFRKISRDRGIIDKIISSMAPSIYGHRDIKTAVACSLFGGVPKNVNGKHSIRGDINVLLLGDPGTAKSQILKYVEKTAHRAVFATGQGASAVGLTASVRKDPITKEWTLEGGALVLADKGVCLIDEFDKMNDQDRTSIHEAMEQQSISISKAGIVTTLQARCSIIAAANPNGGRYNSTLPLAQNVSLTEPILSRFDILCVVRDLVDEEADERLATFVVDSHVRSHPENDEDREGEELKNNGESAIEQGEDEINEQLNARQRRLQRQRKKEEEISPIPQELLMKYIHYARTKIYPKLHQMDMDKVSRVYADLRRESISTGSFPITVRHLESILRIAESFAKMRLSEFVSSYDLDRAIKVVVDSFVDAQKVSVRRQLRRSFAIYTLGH

The target of test [3] is T2, Mcm6 (subunit of the MCM double hexamer) (budding yeast (endogenous in W303), UniProt P53091 1-1017).
T2 construct: Mcm6, budding yeast, endogenous protein from its genomic locus; Stood in the assay as a subunit of the DH; source: endogenous, G1 chromatin of budding yeast (W303), purified as part of the DH
T2 sequence (P53091 whole entry): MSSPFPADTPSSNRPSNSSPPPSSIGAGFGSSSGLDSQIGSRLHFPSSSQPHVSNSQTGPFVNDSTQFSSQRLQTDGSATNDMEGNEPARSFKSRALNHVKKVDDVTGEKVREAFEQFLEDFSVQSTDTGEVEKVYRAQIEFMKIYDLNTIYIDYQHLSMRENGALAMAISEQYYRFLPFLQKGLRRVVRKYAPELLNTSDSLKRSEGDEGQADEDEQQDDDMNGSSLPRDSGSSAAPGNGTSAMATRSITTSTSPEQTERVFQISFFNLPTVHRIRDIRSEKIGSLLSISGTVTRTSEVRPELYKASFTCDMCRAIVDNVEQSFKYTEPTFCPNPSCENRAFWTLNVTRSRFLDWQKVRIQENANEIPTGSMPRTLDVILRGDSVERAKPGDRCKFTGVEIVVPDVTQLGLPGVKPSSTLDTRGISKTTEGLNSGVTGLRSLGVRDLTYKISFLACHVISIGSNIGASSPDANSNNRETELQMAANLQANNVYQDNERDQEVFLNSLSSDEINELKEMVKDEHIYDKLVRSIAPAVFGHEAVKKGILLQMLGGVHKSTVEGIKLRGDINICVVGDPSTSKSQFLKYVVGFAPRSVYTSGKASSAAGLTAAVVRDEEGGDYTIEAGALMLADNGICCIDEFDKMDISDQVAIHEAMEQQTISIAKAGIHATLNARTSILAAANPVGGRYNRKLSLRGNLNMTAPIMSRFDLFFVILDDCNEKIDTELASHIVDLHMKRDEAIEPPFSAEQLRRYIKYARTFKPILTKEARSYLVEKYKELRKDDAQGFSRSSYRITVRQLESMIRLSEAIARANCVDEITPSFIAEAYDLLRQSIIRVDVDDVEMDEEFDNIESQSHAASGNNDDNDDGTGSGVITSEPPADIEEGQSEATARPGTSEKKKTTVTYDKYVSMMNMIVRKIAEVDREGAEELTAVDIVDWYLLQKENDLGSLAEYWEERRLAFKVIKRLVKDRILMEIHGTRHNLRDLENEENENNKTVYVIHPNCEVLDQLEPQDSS

The target of test [4] is T3, Mcm4 (subunit of the MCM double hexamer) (budding yeast (endogenous in W303), UniProt P30665 1-933).
T3 construct: Mcm4, budding yeast, endogenous protein from its genomic locus; Stood in the assay as a subunit of the DH; source: endogenous, G1 chromatin of budding yeast (W303), purified as part of the DH
T3 sequence (looked up): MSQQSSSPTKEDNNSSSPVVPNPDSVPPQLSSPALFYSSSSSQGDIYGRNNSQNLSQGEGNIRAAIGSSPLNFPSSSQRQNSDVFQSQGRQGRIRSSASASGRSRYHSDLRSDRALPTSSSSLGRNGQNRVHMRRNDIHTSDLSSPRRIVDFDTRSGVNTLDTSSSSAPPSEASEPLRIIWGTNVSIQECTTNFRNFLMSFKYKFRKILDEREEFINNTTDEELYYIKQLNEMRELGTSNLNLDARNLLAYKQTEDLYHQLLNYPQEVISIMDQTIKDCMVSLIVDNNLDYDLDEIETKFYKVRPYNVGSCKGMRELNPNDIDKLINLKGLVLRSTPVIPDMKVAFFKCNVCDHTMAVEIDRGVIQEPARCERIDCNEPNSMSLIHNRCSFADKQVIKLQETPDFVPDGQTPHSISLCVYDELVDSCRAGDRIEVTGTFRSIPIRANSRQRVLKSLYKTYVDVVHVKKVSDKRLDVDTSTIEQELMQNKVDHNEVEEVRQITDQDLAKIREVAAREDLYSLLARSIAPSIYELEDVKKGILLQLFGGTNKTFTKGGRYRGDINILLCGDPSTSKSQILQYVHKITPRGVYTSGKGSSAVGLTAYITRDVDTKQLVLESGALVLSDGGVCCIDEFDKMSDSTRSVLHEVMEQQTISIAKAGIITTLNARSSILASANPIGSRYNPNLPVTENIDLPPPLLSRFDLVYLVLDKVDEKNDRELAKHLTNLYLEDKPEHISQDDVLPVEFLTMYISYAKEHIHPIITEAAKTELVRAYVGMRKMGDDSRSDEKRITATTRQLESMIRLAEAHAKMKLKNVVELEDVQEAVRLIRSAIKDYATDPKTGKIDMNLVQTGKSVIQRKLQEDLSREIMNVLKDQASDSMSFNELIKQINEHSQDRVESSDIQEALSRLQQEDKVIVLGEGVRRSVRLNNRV

Test [5] addresses T4, MCM double hexamer (Mcm2-7 double hexamer), endogenous, wild type (budding yeast (endogenous in W303), UniProt P29469 1-868; P24279 1-971; P30665 1-933; P29496 1-775; P53091 1-1017; P38132 …).
T4 construct: Mcm2, budding yeast, endogenous protein from its genomic locus; Mcm3, budding yeast, endogenous protein from its genomic locus; Mcm4, budding yeast, endogenous protein from its genomic locus; Mcm5, budding yeast, endogenous protein from its genomic locus; Mcm6, budding yeast, endogenous protein from its genomic locus; Mcm7, budding yeast, endogenous protein from its genomic locus; Either …

T4 sequence (P24279 whole entry, chain 2 of 4): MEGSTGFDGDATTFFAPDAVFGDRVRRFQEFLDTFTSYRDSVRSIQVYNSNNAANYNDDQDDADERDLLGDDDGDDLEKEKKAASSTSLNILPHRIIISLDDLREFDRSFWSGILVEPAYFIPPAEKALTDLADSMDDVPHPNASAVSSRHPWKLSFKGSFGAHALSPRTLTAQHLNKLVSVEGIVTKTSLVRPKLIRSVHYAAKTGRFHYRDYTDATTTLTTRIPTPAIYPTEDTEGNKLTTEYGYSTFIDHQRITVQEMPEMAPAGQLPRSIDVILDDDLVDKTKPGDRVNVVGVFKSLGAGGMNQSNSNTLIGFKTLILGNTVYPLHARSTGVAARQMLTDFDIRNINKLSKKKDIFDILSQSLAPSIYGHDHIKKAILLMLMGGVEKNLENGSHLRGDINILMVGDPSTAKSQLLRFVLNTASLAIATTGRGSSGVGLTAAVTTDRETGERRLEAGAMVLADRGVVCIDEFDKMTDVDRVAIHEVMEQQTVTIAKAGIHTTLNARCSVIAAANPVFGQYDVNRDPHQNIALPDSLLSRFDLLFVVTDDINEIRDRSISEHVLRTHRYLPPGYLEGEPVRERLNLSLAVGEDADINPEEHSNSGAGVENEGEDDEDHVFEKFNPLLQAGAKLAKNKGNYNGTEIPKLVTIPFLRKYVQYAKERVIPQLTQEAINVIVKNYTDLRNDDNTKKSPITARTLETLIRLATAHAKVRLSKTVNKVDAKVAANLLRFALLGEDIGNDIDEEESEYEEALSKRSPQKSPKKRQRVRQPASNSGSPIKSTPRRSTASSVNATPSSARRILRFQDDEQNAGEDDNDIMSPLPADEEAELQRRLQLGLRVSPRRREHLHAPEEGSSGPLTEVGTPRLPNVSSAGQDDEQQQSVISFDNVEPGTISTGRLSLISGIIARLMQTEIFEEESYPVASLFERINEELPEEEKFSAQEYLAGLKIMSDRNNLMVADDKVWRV
T4 sequence (P29496 whole entry, chain 4 of 4): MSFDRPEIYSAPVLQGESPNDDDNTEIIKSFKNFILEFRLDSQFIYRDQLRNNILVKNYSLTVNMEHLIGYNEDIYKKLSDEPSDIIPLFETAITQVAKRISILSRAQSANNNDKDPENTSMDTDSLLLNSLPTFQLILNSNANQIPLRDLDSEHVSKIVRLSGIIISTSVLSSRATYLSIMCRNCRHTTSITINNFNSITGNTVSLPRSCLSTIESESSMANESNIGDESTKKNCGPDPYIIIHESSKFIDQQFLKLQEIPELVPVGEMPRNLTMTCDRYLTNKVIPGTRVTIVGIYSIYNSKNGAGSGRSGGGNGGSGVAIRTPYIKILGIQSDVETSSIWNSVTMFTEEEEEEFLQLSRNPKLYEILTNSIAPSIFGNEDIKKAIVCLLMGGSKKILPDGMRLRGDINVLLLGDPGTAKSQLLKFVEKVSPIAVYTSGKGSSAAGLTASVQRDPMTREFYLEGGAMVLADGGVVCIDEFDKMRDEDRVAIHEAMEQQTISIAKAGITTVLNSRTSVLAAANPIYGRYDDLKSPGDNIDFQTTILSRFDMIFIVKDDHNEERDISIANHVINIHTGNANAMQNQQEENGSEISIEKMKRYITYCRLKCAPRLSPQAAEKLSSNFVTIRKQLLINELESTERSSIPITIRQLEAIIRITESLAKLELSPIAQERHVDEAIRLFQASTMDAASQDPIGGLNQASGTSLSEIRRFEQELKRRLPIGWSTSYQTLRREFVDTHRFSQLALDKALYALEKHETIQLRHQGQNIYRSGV
T4 sequence (P53091 whole entry, chain 5 of 4): as the sequence (P53091 whole entry) above
T4 sequence (P38132 whole entry, chain 6 of 4): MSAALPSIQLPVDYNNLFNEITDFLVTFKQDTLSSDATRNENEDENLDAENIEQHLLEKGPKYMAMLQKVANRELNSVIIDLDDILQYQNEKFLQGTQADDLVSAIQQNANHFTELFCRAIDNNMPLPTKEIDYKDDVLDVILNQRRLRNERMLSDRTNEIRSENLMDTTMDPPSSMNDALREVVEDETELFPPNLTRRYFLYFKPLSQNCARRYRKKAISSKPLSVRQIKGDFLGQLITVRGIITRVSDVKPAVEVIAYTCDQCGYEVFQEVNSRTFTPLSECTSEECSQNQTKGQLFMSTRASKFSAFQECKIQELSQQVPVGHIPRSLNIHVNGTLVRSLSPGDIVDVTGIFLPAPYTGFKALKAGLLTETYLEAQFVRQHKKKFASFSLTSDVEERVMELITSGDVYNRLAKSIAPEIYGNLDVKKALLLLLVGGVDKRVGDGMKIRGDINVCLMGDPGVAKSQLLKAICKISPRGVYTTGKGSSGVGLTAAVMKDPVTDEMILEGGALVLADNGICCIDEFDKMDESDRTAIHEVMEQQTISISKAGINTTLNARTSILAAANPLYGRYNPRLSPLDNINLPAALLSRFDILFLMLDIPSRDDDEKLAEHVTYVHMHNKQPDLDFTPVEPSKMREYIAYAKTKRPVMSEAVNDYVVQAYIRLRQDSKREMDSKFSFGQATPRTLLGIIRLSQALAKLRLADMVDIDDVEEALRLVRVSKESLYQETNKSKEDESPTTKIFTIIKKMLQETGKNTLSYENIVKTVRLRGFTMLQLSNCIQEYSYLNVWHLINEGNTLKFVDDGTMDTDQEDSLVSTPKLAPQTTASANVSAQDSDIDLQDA

Consider B1, for which the binding result in test [1] is reported as “binds”.

With B2, the binding result in test [2], in test [3] and in test [4] was “binds” throughout.

The stoichiometry N is a count of units in the complex or per binding partner. Take B3: in test [5], the “stoichiometry N” value was 2 DDK per DH and 1 DDK per DH.

For the origin of these results see article PMC8927117, “Structural Insight into the MCM double hexamer activation by Dbf4-Cdc7 kinase” (Nature Communications, 2022).
